B1: D11 rabbit minibody (scFv-rabbit Fc) (Fc fusion)
scFv-Fc: SYELTQPPSVSVAPGQTARITCGGNNIGSKSVHWYQQKPGQAPVLVVYDDSDRPSGIPERFSGSNSGNTATLTISGTQAMDEADYYCQAWDSSTAYVFGSGTKLTVLSGGSTITSYNVYYTKLSSSGTQVQLEESGGGLVQPGGSLRLSCAASGFTFSNYAMSWVRQAPGKGLEWVSAISGSGGATFHADSVKGRFTISRDNSKNTLYLQMNSLRAEDTAVYYCARRVGYDSSGYYWSDAFDIWGQGTMVTVSS
B2: D10 rabbit minibody (scFv-rabbit Fc) (Fc fusion)
scFv-Fc: QSVVTQPPSASGSPGQTVTISCSGNSANIGGNPVNWYQQLPGTAPKLLIYSNNQRPSGVPDRFSGSKSGISASLAISGLQSEDEADYYCAAWDDSLNGVIFGGGTKLTVLSGGSTITSYNVYYTKLSSSGTQVQLVQSGAEVKKPGESLKISCKGSGYSFTSYWIGWVRQMPGKGLEWMGIIYPGDSDTRYSPSFQGQVTISADKSISTAYLQWSSLKASDTAMYYCARRHSGSYSGAFDIWGQGTMVTVSS
B3: H01 rabbit minibody (scFv-rabbit Fc) (Fc fusion)
scFv-Fc: QPGLTQPPSVSLAPGQTARITCGGNNIGSKSVHWYQQKPGQAPVLVVYDDSDRPSGIPERFSGSNAGNTATLTISRVEAGDEADYYCQVWDSRSDQYVFGTRTKLTVLSGGSTITSYNVYYTKLSSSGAQVTLKESGPVLVKPTETLTLTCTVSGFSLSNARMGVSWIRQPPGKALEWLAHIFSNGEKSYSTSLKSRLTISKDTSKSQVVLTMTNMDPVDTATYYCARTLDYYDSSGYLVGGAFDIWGQGTMVTVSS
B4: D07 rabbit minibody (scFv-rabbit Fc) (Fc fusion)
scFv-Fc: SYELTQPPSVSVAPGETARMTCGGNNIGTKGVHWYQQKPGQAPVLVVYDDSDRPSGIPERFSGSNAGNTATLTISRVEAGDEADYYCQVWDSRSDQYVFGTRTKLTVLSGGSTITSYNVYYTKLSSSGAQVTLKESGPVLVKPTETLTLTCTVSGFSLSNARMGVSWIRQPPGKALEWLAHIFSNGEKSYSTSLKSRLTISKDTSKSQVVLTMTNMDPVDTATYYCARTLDYYDSSGYLVGGAFDIWGQGTMVTVSS
B5: D04 rabbit minibody (scFv-rabbit Fc) (Fc fusion)
scFv-Fc: SYVLTQPPSVSVAPGKTARITCGGNNIGWKSVHWYQQKPGQAPVLVVYNDNDRPSGVPERFSGSNSGNTATLTISRVVAGDEADYYCQVWDSSSDHVLFGGGTKLTVLSGGSTITSYNVYYTKLSSSGTQVQLVQSGAEVKKPGSSVKVSCKASGGTFSSYAISWVRQAPGQGLEWMGGIIPIFGTANYAQKFQGRVTITADESTSTAYMELSSLRSEDTAVYYCARASGRWLQFWHYYGMDVWGQGTTVTVS
B6: B04 rabbit minibody (scFv-rabbit Fc) (Fc fusion)
scFv-Fc: SYVLTQPPSVSVAPGKTARITCGGNNIGIRSVHWYQQKPGQAPVLVIYYDSDRPSGIPERFSGSKSGNTATLTISRVEAGDEADYYCQVWDSSSDHPVFGGGTKLTVLSGGSTITSYNVYYTKLSSSGTQVQLVESGAEVKKPGASVKVSCKASGYTFTRYYMHWVRQAPGQGLEWMGIINPSGGTTSYAQKFQGRVTMTRDTSTSTVYMELSSLRSEDTAVYYCARSFGELTSFDYWGQGTLVTVSS
B7: G07 rabbit minibody (scFv-rabbit Fc) (Fc fusion)
scFv-Fc: QSVLIQPPSASGTPGQRVTISCSGSNSNFGSNSVSWYQQRPGTAPKLLIEGNNQRPSGVPERFSGSKSGTSASLAISGLQSEDEAEYSCASWDDSLNAFVFGPGTKLTVLSGGSAITSYNVYYTKLSSSGTQVQLVQSGAEVKKPGESLKISCKGSGYSFTSYWIGWVRQMPGKGLEWMGIIYPGDSDIRYSPSFQGQVTISADKSFSSAYLQWSSLKASDTAMYYCARLGATGAFDIWGQGTTVTVSS
B8: B10 rabbit minibody (scFv-rabbit Fc) (Fc fusion)
scFv-Fc: QSVVTQPPSVSGAPGQRVTISCTGSSSNIGSRTVNWYQQLPGTAPKLLIYANNQRPSGVPDRFSGSKSGTSASLAISGLQSEDEADYYCAAWDDSLNGYVFGTGTKLTVLSGGSTITSYNVYYTKLSSSGTQVQLQQSGPGLVKPSQTLSLTCAISGDSVSSNSATWNWIRQSPSRGLEWLGRTYYGSKWHSDYAVSVKSRITINPDTSKNQISLHLNPVTPEDTAVYYCARGRSYAFDIWDQGTMVTVSS

target: SARS-CoV spike protein receptor binding domain (RBD1) (SARS-CoV, UniProt P59594 306-527); assay: ELISA, crude rabbit minibody

Question: Does B1 bind?
Answer: Result: no binding

Question: Does B2 bind?
Answer: Result: no binding

Question: Does B3 bind?
Answer: Result: no binding

Question: Does B4 bind?
Answer: Result: no binding

Question: Does B5 bind?
Answer: Result: no binding

Question: Does B6 bind?
Answer: Result: no binding

Question: Does B7 bind?
Answer: Result: no binding

Question: Does B8 bind?
Answer: Result: no binding
